Data set [1] has as its target T1, M. kandleri AV19 DNA polymerase family B (Mka PolB) (MK1039) (Methanopyrus kandleri AV19).
T1 chain: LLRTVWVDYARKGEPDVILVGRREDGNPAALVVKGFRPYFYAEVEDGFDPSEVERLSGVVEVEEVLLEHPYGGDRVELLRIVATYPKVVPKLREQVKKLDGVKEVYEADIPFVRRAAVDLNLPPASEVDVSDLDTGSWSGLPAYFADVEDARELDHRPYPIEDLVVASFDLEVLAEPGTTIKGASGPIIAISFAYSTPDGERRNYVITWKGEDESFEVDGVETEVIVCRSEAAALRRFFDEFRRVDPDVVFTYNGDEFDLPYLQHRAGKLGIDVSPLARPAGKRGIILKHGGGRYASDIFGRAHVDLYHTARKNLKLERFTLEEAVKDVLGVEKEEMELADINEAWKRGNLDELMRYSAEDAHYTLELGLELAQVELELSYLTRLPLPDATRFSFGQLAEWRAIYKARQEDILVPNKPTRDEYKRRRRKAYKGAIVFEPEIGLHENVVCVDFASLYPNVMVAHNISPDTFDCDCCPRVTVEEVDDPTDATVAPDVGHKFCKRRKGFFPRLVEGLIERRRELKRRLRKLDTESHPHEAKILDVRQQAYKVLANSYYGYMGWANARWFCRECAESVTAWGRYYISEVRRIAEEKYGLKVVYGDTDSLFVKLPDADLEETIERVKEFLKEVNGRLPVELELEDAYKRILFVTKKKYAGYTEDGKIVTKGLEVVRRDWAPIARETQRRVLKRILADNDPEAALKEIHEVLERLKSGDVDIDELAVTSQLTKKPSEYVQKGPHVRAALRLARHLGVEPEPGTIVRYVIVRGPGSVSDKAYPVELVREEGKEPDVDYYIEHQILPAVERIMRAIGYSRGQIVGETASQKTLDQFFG
Nature of the data set: cell-based or functional assay.

Data set [2] concerns PolB. Nature of the data set: Interaction of polB with PCNA (primer extension assay). The class given is biochemical, Methanopyrus kandleri. As to conditions: PCNA 5.6 μM subunits, 100 mM NaCl. Here is the method:
PolB was incubated with PCNA (final concentration 5.6 μM subunits) in the presence of 100 mM NaCl. The polymerase activity was measured in the primer extension assay and compared to the activity without PCNA added. Even without clamp loader, the interaction of PCNA with PolB was detected as the initial rate of the primer extension increased 1.75 times. […] This happens, most likely because PCNA anchors polB on the PTJ and/or prevents partial melting of the PTJ duplex.

Data set [3] has as its target M.K. polB DNA polymerase (Methanopyrus kandleri, UniProt Q8TWJ5). Kind of data set: Effects of media components on M.K. polB DNA polymerase activity (primer extension). It is filed as biochemical. Here is the method: DNA polymerase reaction mixtures (15-20 μl) contained dATP, dTTP, dCTP, and dGTP (1 mM each), 4.5 mM MgCl2, detergents Tween 20 and Nonidet P-40 (0.2% each), fixed concentrations of PTJ—duplex, other additions, as indicated, and appropriate amounts of polB in 30 mM Tris-HCl buffer pH 8.0 (25° C.). The background reaction mixtures contained all components except DNA polymerases. Primer extensions were carried out for a preset time at 75° C. in PTC-150 Minicycler (MJ Research, Inc.; Waltham, Mass.). 5 μl samples were removed and chilled to 4° C. followed by immediate addition of 20 μl of 20 mM EDTA. The samples were desalted by centrifugation through Sephadex G-50 spun columns, diluted, and analyzed on a ABI Prism 377 DNA sequencer (Applied BioSystems; Foster City, Calif.). For each sample, raw data were extracted from the sequencer trace files with the program Chromas 1.5 (Technelysium Pty Ltd., Australia), and the fluorescent signals were analyzed by our nonlinear regression data analysis programs written in Fortran. The programs applied Powell algorithms to approximate the signals by a number of Gaussian peaks and calculate integral fluorescent intensities for each product peak. The total amount of fluorescent products for each time of incubation was determined, and the initial rates of extension were calculated.
The next two tables (Table 4 and 5) display effects of various media components on M.K. polB DNA polymerase activity. Initial rates of primer extension reaction were measured as described by Pavlov et al., 2002.

Sequence of M.K. polB DNA polymerase (Q8TWJ5 entry or part of it): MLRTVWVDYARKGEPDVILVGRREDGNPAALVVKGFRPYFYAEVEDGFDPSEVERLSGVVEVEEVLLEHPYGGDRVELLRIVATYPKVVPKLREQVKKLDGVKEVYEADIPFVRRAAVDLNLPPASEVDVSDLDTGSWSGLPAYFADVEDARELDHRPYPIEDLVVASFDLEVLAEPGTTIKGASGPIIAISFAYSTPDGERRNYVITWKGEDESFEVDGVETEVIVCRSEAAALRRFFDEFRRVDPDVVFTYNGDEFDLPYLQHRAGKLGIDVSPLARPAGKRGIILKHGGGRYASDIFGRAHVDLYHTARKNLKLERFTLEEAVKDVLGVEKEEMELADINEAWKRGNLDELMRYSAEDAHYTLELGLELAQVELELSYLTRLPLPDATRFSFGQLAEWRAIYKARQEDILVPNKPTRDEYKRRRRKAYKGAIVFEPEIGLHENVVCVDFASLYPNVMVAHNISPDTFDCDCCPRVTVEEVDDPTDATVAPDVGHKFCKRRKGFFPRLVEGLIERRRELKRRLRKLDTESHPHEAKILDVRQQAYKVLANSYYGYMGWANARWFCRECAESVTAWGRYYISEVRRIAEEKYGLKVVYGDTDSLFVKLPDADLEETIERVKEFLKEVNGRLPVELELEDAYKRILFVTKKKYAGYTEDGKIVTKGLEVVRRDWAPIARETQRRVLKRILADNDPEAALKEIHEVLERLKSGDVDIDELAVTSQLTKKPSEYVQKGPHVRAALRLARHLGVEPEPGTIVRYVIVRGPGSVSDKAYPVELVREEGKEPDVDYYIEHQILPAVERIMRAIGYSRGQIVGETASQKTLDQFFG

B1: M. kandleri AV19 PCNA (MK1030), DNA polymerase sliding clamp (other)
chain: LVEFRAYQEEARYFKYAFNAAGKVVEEAPLIVTENGIVSRAMDASHIAMAVLEMPWEMFDEYEPPSDELMYGLDMEEVTRIVRRARVTDEITLEGEDEEEVIIKLGSSGYEREFRLRSIDIDDIPDEPELDFAVEVTVVPDFIQDAVRDADLVSDTVKVGAKGNTFYFKAEGERGRVIPKVQEGAEALLTFEVEEDVETAYPLDYLKDMIQAAQGAESVRIRLGQDMPLELTFRIGPAGEGKLTFYLAPRVEE
In the case of B1, in data set [1], the “initial rate of the primer extension” value turned out to be 1.75 fold. In addition, the “effect on hydrolysis of the primer annealed to the duplex” value in data set [2] was “suppression of hydrolysis of the primer”. In addition, in data set [3], the “effect on polymerase activity of PolB” value is given as “increase”.

Values taken from patent US20060068386A1, “Complete genome and protein sequence of the hyperthermophile methanopyrus kandleri av19 and monophyly of archael methanogens and methods of use thereof” (priority 2002, published 2006).
